Test: soluble on expression in E. coli; label from the status in PepcDB or PDB records

Row | Sequence | soluble on expression in E. coli
1 | SAQAQRVQDAIQHWESHHPKEVAARSTRLAELKQALAEQGAVVRTLQPKVTTTSPQAMLKQAMPALQKMETYACTDGLTFVGKHSSHRRQVEERLDSFGGSQSRKAANKQANDMSNMAAIAAKRGNVSLNQLKSIAACVAQAQAGCCTTFAYSAAAELMKHNQDNQQRIEVVAHRGAKGHSQTHCFVVVGRDPNSELSKPETWGKQAHVIDPWAATIGGRLQGTPSNPPIANLWPPTESV | not soluble
2 | MAKRQQRSNKPSSEYTCLGHLVNLIPGKEQKVEITNRNVTTIGRSRSCDVILSEPDISTFHAEFHLLQMDVDNFQRNLINVIDKSRNGTFINGNRLVKKDYILKNGDRIVFGKSCSFLFKYASSSSTDIENDDEKVSSESRSYRSHHHHHH | soluble
3 | MDAAVIVPAYNEAESLARCLAPFESQPVELVVVVGGDDGTEQVARDTPFVDTVVRCDEGGAGIARNRGAAAATAPILLFTDADTVVPEDWVRLHLRHYADDEVIGVGGPARPLEDSLKHRVLFKLLSDYWYRVSWPLGFVQQPGFNCSFRADAFKAAGGFNEDIPFMEDTELSLRMKDYGRIVYDADSCVATSARREADEGYVSLFAKYVRGYANHYILRREFDADYFLEHHHHHH | not soluble
4 | MSLTRQMNILLVEDDDLDAMMIKRAMAQVAPDAHLIRATDGVEALEIVQSNRVEDPYFILLDVNMPRMNGHEFLKELRASSEHSDTMVFMFTTSESARDIARAYQERANGYIVKPHGKAAMNSILDTLQRYWTTCEEGHHHHHH | soluble
5 | MPEVVFYPQNKSINVEEGTTILQAARSAGVIIESPCNGTGTCGKCKVRLDEKSLPNVLAKSRHYLSKEEEEQGYVLACETQITGDIKVELGENKQNGTLKILSRGHSFNIDLKPFIRKEYFVHEDVTKVFAGKEQLGIEAGDTTKENYGAVVDIGTTTLVASIVNLNNGDEIGTSSALNPQAVHAQDVLSRIKFSSDADGLKVMHSELTDKINSMIGKIALRAGISKEHIYEIVFSGNTCMLHLASNTCPESLGKYPYTPKISGAAYLDAAKYNIDISPFGIIYLPPIISAYVGADIVSGILASQLHEKDGVILFVDIGTNGEMVLASCGNLSATSTAAGPAFEGMNITCGMRAGEAAIEFFEIEEQGSINIKVIGETEAAGICGSGLLDMVGEFAAHGVIKKNGQFIDPESENVLHPKLAERLVRQDGKWIFKVTDKVFLSQKDIRQVQLAKGAVRAGIEFLLENKGVRASDVDKVLIAGSFGYHLREKSLINIGLLPKEFEGKVEFVGNTSLSGAKAFLLNQTYREKMKETVKSVEVLELANYKDFDRVFVRCLSFLEHHHHHH | not soluble
6 | MNIYQQLVKQKLKTITPEELVSYSREYGLPITTSQAKQILHLARTNDINVFDPEERKKWVRELAKITSPDIARKANELFLKFVQKK | not soluble
7 | MHHHHHHSSGVDLGTENLYFQSNAMTIMLTPMQTEEFRSYLTYTTKHYAEEKVKAGTWLPEDAQLLSKQVFTDLLPRGLETPHHHLWSLKLNEKDIVGWLWIHAEPEHPQQEAFIYDFGLYEPYRGKGYAKQALAALDQAARSMGIRKLSLHVFAHNQTARKLYEQTGFQETDVVMSKKL | soluble
8 | MGSDKIHHHHHHMPVMDRAAMRTMATLQPSCMRWLCTTPSILDAAKAGWPISWAATPDSPATVTIRQFQASTCCRKKTFDVVVNTDVLEHVPEAELDCVLRDFRKLSTNAIIIPHLAKATRILPNGENAHCTIKTPSEWAQVFKRHYAHVYELPHHSAVHALFLCGDQERDVTALRGILEQYVAAKNEVRHHLLPLGKRIEKAIRLIRGKDINR | not soluble
9 | LPDLRRRVLSGPLFAWFQKVLPPMSDTEREAIEAGTVWWDGELFSGRPDWQKLLDYPKAQLTEEEQAFVDGPTEELCAMVSDWDIGQRMDLPEEAWAFIKQHGFFGLIIPKEYGGKGFSAFAHSQVVMKLATRSGDLASTVMVPNSLGPAELLLHYGTDEQRQRYLPSLAKGDDIPCFALTGPYAGSDAGGMTDVGIVCKGEWEGREVLGLRLTWEKRYITLGPVATLLGLAFKCHDPDHLLGDEEDLGITLALIPTDTPGVEIGRRHVPLGAAFMNGPNSGKDVFVPLEYIIGGQEMIGKGWMMLMNCLSVGRSISLPAVGTSAGKASSYVSGRYAQVREQFNVPIAAFEGIQEALARIGGNAWLMDSARILTANAVDLGEKPSVLSAILKYHLTERGRECIAHAMDIHGGKGIIMGPNNYLGRSWQGAPIFITVEGANILSRNLMIFGQGAIRCHPYVLKEMELAQREDKDQAAREFDA | not soluble
10 | MRQLLLISDLDNTWVGDQQALEHLQEYLGDRRGNFYLAYATGRSYHSARELQKQVGLMEPDYWLTAVGSEIYHPEGLDQHWADYLSEHWQRDILQAIADGFEALKPQSPLEQNPWKISYHLDPQACPTVIDQLTEMLKETGIPVQVIFSSGKDVDLLPQRSNKGNATQYLQQHLAMEPSQTLVCGDSGNDIGLFETSARGVIVRNAQPELLHWYDQWGDSRHYRAQSSHAGAILEAIAHFDFLS | soluble
11 | MKFEFRTLVLISLAVVVVLSGCSQSPSSGGVPEYSGSKVYSAPTLYSQLIGVPTEGVSVKAYTVENANAKDILSWYKEKLSDYEIVNEMSVVQMTTPQGSAEWGAILFKKGDKGVGIWAMSGSGVEGGGAVYFIVEGPIDKLTGESGEAGGAGEQLPASDQASGEEPVKRYPGSVMLSYYKDTSNPLEVSIGIDYGTEDSAEKVAHWYKQELQAEGWVLESESSDDSSIDLAFSRGKEYIDIYIIEPYEGFLTRKLTSTTGRRGCHLTTWSVERSRWRGIPAQLCWNT | not soluble
12 | MESIFHEKQEGSLCAQHCLNNLLQGEYFSPVELSSIAHQLDEEERMRMAEGGVTSEDYRTFLQQPSGNMDDSGFFSIQVISNALKVWGLELILFNSPEYQRLRIDPINERSFICNYKEHWFTVRKLGKQWFNLNSLLTGPELISDTYLALFLAQLQQEGYSIFVVKGDLPDCEADQLLQMIR | soluble
13 | MSSIEWNEKTFAKFAYLSDPRTKGELVAYVLTKANLKDNKYENTIVIENLKNNARRFIENATMPRISPDGKKIAFMRANEEKKVSEIWVADLETLSSKKILEAKNIRSLEWNEDSRKLLIVGFKRREDEDFIFEDDVPAWFDDLGFFDGEKTTFWIFDTESEEVIEEFEKPRFSSGIWHRDKIVVNVPHREIIPQYFKFWDIYIWEDGKEEKMFEKVSFYAVDSDGERILLYGKPEKKYMSEHNKLYIYDGKEVMGILDEVDRGVGQAKIKDGKVYFTLFEEGSVNLYIWDGEIKPIAKGRHWIMGFDVDEIVVYLKETATRLRELFTWDGEEKQLTDYNDPIFAKL | soluble
14 | MGSDKIHHHHHHMKSFVIEDEFWSLFPNAKIGVVICHSIDNSIKDENQYKDMISNSEEEALSYLKNEEFSSNEVIKVWREAFQKFKTKKGARSSIEALLKRVHKGNHIGTINPLVDIYNSISLRYAMPCGGEDIDAFAGDIRLTKAVGNESFVTLGTDKNEPPYEGEIVYKDNEGAICRCFNWRESVRTMLTENTKNAFLCIELIDETRVKEFEDALDTLAKTVQDNLGGNCKISTLDINNKSVVID | not soluble
15 | DMIVRQAGPADAAAMSAVLHPILTGWNSARSGDAETVLTRYIDDPDRLSCAVACEGERILGFQSLKLARAGNVYDLPAGWGIIGTYVAGDAGRRGIGRALFTETLAAARRAGLAHIDATIGADNAQGLPYYSALGFQTWRELDG | not soluble
16 | MQSFLQLVAHDLYAKIGNDLSRTVLVFPNKRANLFFNEHLAGESDQPIWSPAAMSISDLFRKLSVQKAGDPIRLVCELYKVFREETESQETLDDFYFWGELLISDFDDVDKNLVDANKLFSNLQDLKNLMDDYEFLDKEQEEAIQQFFQNFSIERRTVLKEKFISLWDKLGTIYHRYRENLAELGIAYEGMLYRNVIEQLDTTRLKYDKYIFVGFNVLNKVETKFFQLLQDADKAMFYWDYDLFYTKQIVKHEAGEFINRNLKLFPNELPESCFDTLRKPKNIRYISASTENAQARFLPEWVQSTLSTANEEKENAVVLCNEALLLPVLHSIPQEVENVNITMGFPLAQTPVYSFINAAMELQTNGYRTATGRFTYETVSAILKHPYTRQLSINAEPLERELTKTNRFYPLPSELKMDDFLIKLFTPRSGIKELCDYLTELIKDISLLYREESEYNDIFNQLYRESLFKSYTTINRLYSLIETGELNVRTDTLRRLVSKVLTASNIPFHGEPAIGMQVMGVLETRNLDFRNIILLSLNEGQLPKSGGDSSFIPYNLRKAFGMTTIEHKNAVYAYYFYRLIQRAENITLLYNTSSNGLNRGEESRFMLQLLVEGPHKITREYLEAGQSPQGTTDISIEKTPEVFERLRCSYDCSNPQSYILSPSALNAYLDCRLKFYYRYVARLKAPDEVSAEIDSALFGTIFHLSAQLAYTDLTANRKIIQKEDLERLLRNEVKLQNYVDLAFKQELFKVPADEKPEYNGVQLINSKVIVSYLKQLLRNDLQYAPFEMVAMEKPVAEKITIQTGQGPITLRLGGTIDRMDAKDTTLRIVDYKTGGSPKTPANIEQLFTPSETRPNYIFQTFLYAAIMSRQQSLKVAPSLLYIHRAASESYSPVIEMGEPRQPKIPVNNFAFFEDEFRERLQRLLKEIFDENEPFTQTEDTKKCAYCDFKAICKR | not soluble
17 | MTDVIKPDYLEYDDLLDRDEMFTILEEYFMYRGLLGLRIKYGRLFNEIKKFDNDAEEQFGTIEELKQKLRLNSEEGADNFIDYIKVQKQDIVKLTVYDCISMIGLCACVVDVWRNEKLFSRWKYCLRAIKLFINDHMLDKIKSILQNRLVYVEMSKHHHHHH | soluble
18 | MGSDKIHHHHHHMTHDTSPIHRTIELPDELLVGAIDTHIHSGPWLKSCPGRLDPFQIAEQAKQAGMRAVVFYDHTFGNSAGTSWMVRRSVPGIDVYGGIILTTNFGGMNPRAVKTALHYGDGAKFVHFGTHCTYHMASREGSYVDGKPVPFKDLYPKFAEQELARAIRIPLDGPVPGELEEILGLVAGHPDVYLNTGHISPGEVMRLAELAERFGIRKMIVAHPARAWLSTAQQKDLSARGFFLEGSVSDWLFHRGLPRTNYYVEREYADEIAGIANEPQFQGVVQWASQLREVGLANVVLGTDYGIGSCPAPREGMRLLISTLLDLQFSLAEIELLTRRNPARLLGLE | not soluble
19 | TNTEAFCTSCHEMQSNVFEELTRTVHYTNRSGVRAGCPDCHVPHEWTDKIARKMQASKEVWGHLFGTIDTRRKFLDNRLRLAEHEWARLKANDSLECRNCHSEVAMDFTRQTDRAAQIHTQYLIQTEGYTCIDCHKGIAHEL | not soluble
20 | MQRARCYLLGETAVVLELEPPITLASQKRIWRLTQRLVDMPNVVEAIPGMNNITVILREPQTLALDAIERLQRWWEESEALEPDSRSVEIPVIYGGAGGPDLAAVARHSGLSEKQVVELHASVEYVVWFLGFQPGFPYLGNLPEPLHMPRRAEPRLQVPAGSVGIGGAQTGIYPLSTPGGWQLIGLTPLKLFDPMRETPVLLRPGDSVRFVPQKEGICMAGDPLEHHHHHH | not soluble
21 | MDLKQYITIVPDFPKPGIMFKDITTLMDNGPAYKYATDQIVQYAREKQIEIVVGPEARGFIIGCPVAYALGVGFAPVRKEGKLPREVVRVEYGLEYGTDVLTMHKDAIKPGQRVLITDDLLATGGTMRATIDLVEQLGGVVAGLAFLIELTELGGRKKLEGYDILTLMQF | soluble
22 | AHHHHHHGSKVLVTGFEPFGGEKINPTERIAKDLDGIKIGDAQVFGRVLPVVFGKAKEVLEKTLEEIKPDIAIHVGLAPGRSAISIERIAVNAIDARIPDNEGKKIEDEPIVPGAPTAYFSTLPIKKIMKKLHERGIPAYISNSAGLYLCNYVMYLSLHHSATKGYPKMSGFIHVPYIPEQIIDKIGKGQVPPSMCYEMELEAVKVAIEVALEELL | soluble

Source: the DeepSol protein solubility set
